Experimental findings from patent US20180292408A1 are described below.

For assay [1], the target named is β-gal-Core-192 (HCV-241) (hepatitis C virus). The experiment in a line: sandwich ELISA, C7-50 capture, llama anti-serum detection.
Assay [2] shares this target. The experiment in a line: sandwich ELISA, C7-50 coated, detected with llama serum and HRP-goat-anti-llama antibody.
Assay [3] has the same target. The experiment in a line: lateral flow immunoassay, C7-50 labelled with colloidal gold, purified rabbit antibody on the test line.

Chain of β-gal-Core-192 (HCV-241) (hepatitis C virus) (P00722 2-1024): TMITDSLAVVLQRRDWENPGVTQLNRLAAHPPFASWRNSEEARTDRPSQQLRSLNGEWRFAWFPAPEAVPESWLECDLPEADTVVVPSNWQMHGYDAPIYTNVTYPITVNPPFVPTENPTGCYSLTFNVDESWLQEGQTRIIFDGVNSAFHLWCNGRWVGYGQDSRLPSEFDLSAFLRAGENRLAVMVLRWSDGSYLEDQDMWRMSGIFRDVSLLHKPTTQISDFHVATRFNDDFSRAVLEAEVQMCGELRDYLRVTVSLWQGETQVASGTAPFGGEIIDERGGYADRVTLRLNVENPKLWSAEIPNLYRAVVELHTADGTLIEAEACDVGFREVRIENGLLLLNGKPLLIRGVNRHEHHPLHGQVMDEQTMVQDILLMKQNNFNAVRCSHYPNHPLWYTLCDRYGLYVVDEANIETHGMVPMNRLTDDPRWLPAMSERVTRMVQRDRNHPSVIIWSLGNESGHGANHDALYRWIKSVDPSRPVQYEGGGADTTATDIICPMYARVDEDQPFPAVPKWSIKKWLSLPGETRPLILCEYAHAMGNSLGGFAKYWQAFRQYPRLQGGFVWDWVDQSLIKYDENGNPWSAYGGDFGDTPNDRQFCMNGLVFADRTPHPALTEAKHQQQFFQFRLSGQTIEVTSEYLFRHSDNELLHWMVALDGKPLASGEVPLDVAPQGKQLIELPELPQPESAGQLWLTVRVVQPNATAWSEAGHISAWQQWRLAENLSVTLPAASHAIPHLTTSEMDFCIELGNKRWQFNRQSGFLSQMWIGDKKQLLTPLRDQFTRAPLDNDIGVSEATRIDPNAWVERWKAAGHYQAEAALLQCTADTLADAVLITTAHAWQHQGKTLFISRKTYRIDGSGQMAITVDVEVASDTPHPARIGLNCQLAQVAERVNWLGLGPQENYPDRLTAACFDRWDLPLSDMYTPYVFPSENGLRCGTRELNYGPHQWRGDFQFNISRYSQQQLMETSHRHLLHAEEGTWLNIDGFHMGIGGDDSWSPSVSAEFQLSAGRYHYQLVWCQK

With “mouse monoclonal antibody (clone C7-50), Abcam”, in assay [1], the detection limit of the sandwich ELISA was below 40 ng/mL. Further, in assay [2], the OD450 at 0 ng/ml antigen (background) is 0.181 OD450, the OD450 at 8 ng/ml antigen was determined as 0.221 OD450, the OD450 at 40 ng/ml antigen came to 0.214 OD450 and the OD450 at 200 ng/ml antigen amounted to 0.3 OD450. In assay [2], this substance gave an OD450 at 1000 ng/ml antigen of 0.494 OD450, an OD450 at 5000 ng/ml antigen of 1.74 OD450, an OD450 at 25000 ng/ml antigen of 2.18 OD450 and an OD450 at 125000 ng/ml antigen of 2.27 OD450. In assay [3], the antigen concentration detected in LFIA came to 0.3 ng/µL.
